Data reported in paper PMC6028548.

Tests used:
[1] = molecular target: Kif18b-GFP-His (full-length Kif18-GFP-6×His) (human); assay: SEC-MALS; Superdex 200 10/300 GL, MiniDAWN detector; Kif18b-GFP-His at 0.3 mg/ml in gel filtration buffer (25 mM Hepes, pH 7.5, 150 mM NaCl, 300 mM KCl, 5 mM β-mercaptoethanol, 1 mM MgCl2, 1 mM Na-EGTA, 1 mM ATP)
[2] = molecular target: Kif18b-GFP-His (full-length Kif18-GFP-6×His) (human); assay: single-molecule photobleaching (TIRF microscopy); Kif18b-GFP motors moving on GMP-CPP–stabilized microtubules; bleaching steps and intensities of GFP
[3] = molecular target: GMP-CPP–stabilized microtubules and dynamic microtubules grown from GMP-CPP seeds (TIRF assays) (UniProt P02550); assay: single-molecule TIRF microscopy; rhodamine-labeled GMP-CPP microtubules held on the glass by anti–β-tubulin antibodies; 1–10 nM motor in BRB80 with 1 mM ATP, 0.5 mg/ml casein, oxygen scavengers; 37°C
Kif18b_(500–593) (human) = assay: SEC-MALS; Superdex 200 10/300 GL, MiniDAWN detector; protein at 2 mg/ml

| stoichiometry N [1] | stoichiometry N [2] | dwell time at the microtubule plus end [3] [s] | stoichiometry N (Kif18b_(500–593) (human)) | Substance |
| --- | --- | --- | --- | --- |
| 2 | 2 | 22.8 | – | Kif18b-GFP-His (full-length Kif18-GFP-6×His) (natural protein) |
| – | – | – | 2 | Kif18b_(500–593) (domain or fragment) |
| – | – | 8.5 | – | Kif18bΔC-GFP-His (domain or fragment) |
